Among the data in patent US20260224676A1 (published 2026) are Kd values, retold here.

The target of the assay is Tau preformed fibrils (PFF) (UniProt P10636 2-758). Nature of the assay: BLI.

B1: Bepranemab (antibody, V domains shown)
VH: EVQLQESGPGLVKPSETLSLTCTVSGFSLTSNDIAWIRQPPGKGLEWMGTIWTDGSTNYNTAVQSRVTISVDTSKNQFSLKLSSVTAADTAVYYCARHRLYYGAFDYWGQGTMVTVSS
VL: DIVMTQTPLSLSVTPGQPASISCRSSQSLEYSDGYTYLEWYLQKPGQSPQLLIYEVSNRFSGVPDRFSGSGSGTDFTLKISRVEAEDVGVYYCFQATHNPYTFGQGTKLEIK
By Kd is commonly meant the constant that tells how readily two partners part at equilibrium. Low values mean a tighter complex, high ones a looser complex. B1 had an equilibrium dissociation constant (Kd) of 1.32 nM.
